Data reported in patent publication US20240058465A1 (SUTRO BIOPHARMA, published 2024).
Numbering of substitutions follows the chain as printed. Like-named read-outs stand apart in the source and are kept apart here. One block for each binder: values may come before it.

What was measured:
[1] = molecular target: ROR1 (recombinant protein coated on the ELISA plate, Example 11) (UniProt Q01973 30-403, limits assumed); test: ELISA: ROR1 coated on the plate, antibody titrated 3-fold from 5 ug/mL, HRP anti-human Fc, chemiluminescence (ELISA RLU)
Description: The anti-ROR1 lead antibodies were discovered from a Fab ribosome display library that contained CDR H1, H2, and H3 diversity and utilized a constant LC (trastuzumab LC). In this example, the HCs of the lead antibodies were co-expressed with trastuzumab LC or different LCs derived from anti-CD3 antibodies: hOKT3-LC1, hSP34-LC3, hUCHT1-LC3 to determine if the anti-ROR1 HC leads would retain binding to ROR1 when assembled with anti-CD3 LCs. […] The antibodies were then purified and tested for ROR1 binding by ELISA. The ELISA assay was carried out as follows. Briefly, 2 μg/mL of ROR1 was coated to a 384-well polystyrene plate for 1 hr at 30° C. in 0.1 M bicarbonate pH8.9 buffer before it was washed and blocked with 2% BSA in PBST (PBS, 0.1% Tween20) for 1 hr. Antibody variants were diluted to 5 μg/mL and further serially diluted 3-fold before 30 μL was applied to the ELISA plates for binding ([…] Antibody binding was detected via HRP-conjugated anti-human Fc antibodies (Jackson Immunoresearch) and detection with SuperSignal ELISA Pico Chemiluminescent Substrate (Pierce).

[2] = molecular target: T1, human ROR1 Immunoglobulin domain (Ig, residues 39-151) with C-terminal HIS6 tag (human, UniProt Q01973 39-151); test: SPR kinetic screen (Biacore), antibody captured as ligand (Fc=2-1), sample printed as ROR1 Ig, 25 C, 1:1 binding model
T1 construct: Made in HEK293 cells and purified (Acro Biosystems)

[3] = molecular target: T1, human ROR1 Immunoglobulin domain (Ig, …); test: SPR kinetic screen (Biacore), antibody captured as ligand (Fc=4-1), sample printed as ROR1 Ig, 25 C, 1:1 binding model; fit to a flat sensorgram
[4] = molecular target: T2, receptor tyrosine kinase orphan receptor 1 (ROR1) on Ntera-2 cells (human, UniProt Q01973 30-937); test: cell-based or functional assay
[5] = molecular target: T2, receptor tyrosine kinase orphan …; test: cell-based or functional assay; remark: listed apart in the source
[6] = molecular target: T2, receptor tyrosine kinase orphan …; test: cell-based or functional assay; remark: listed apart in the source
[7] = molecular target: T3, human ROR1 Frizzled domain (hROR1-Fz) (human, UniProt Q01973 165-305); test: SPR Biacore, IgG on anti-Fc, ROR1-Fz analyte
T3 construct: Acro Biosystems, made in HEK293
In short: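 Test antibodies captured on an anti-Fc surface (CM5 chip), then analyte bound for 180 s with 600 s dissociation at 25° C in HBS-EP+ buffer at 50 μL/min. Human ROR1 ECD, Frizzled or Kringle domain used as analyte; regeneration with 10 mM glycine pH 2.0.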

human ROR1 (hROR1) [8] = molecular target: T4, human ROR1 (hROR1) (human, UniProt Q01973 30-937); test: cell-based or functional assay
human ROR1 (hROR1) [9] = molecular target: T4, human ROR1 (hROR1); test: flow cytometry, HCT116-hROR1 cells

- EC50 (read off the curve) [1]: ~0.03 µg/mL
- Kd [2]: 2.6 nM
- koff [2]: 0.133 s⁻¹
- kon [2]: 5.11e+07 M⁻¹ s⁻¹
B1: 1987-C05 HC co-expressed with hUCHT1-LC3 light chain (antibody, V domains shown)
VH: EVQLVESGGGLVQPGGSLRLSCAASGFNISDYDIHWVRQAPGKGLEWVGGIDPDDGSTDYADSVKGRFTISADTSKNTAYLQMNSLRAEDTAVYYCARDYGVFDYWGQGTLVTVSS
VL: DIQMTQSPSTLSASVGDRVTITCRASQDIRNYLNWYQQKPGKAPKLLIYYTSRLHSGVPSRFSGSGSGTEYTLTISSLQPDDFATYYCQQGNTLPWTFGGGTKVEIK
notes: Only variable domains are tied to this pairing; also called 1987-C05 w/hUCHT1 LC3; 1987-C05 variant

- Kd [3]: 34.1 nM
- koff [3]: 0.00133 s⁻¹
- kon [3]: 38900 M⁻¹ s⁻¹
B2: 1987-C05 HC co-expressed with hSP34-LC3 light chain (antibody, V domains shown)
VH: B1 VH
VL: QTVVTQEPSLTVSPGGTVTLTCGSSTGAVTSGYYPNWFQQKPGQAPRGLIGGTKFLAPGTPARFSGSLLGGKAALTLSGVQPEDEAEYYCALWYSNRWVFGGGTQLTVTG
notes: Only variable domains are tied to this pairing; also called 1987-C05 w/hSP34 LC3; 1987-C05 variant

B3: Conjugate 46 (D04-Y180/F241/F404/K42-LP3) (antibody, human IgG1, kappa)
heavy: MEVQLVESGGGLVQPGGSLRLSCAASGFNISDYDIHWVRQAPGKGLEWVGGIDPADGSTDYADSVKGRFTISADTSKNTAYLQMNSLRAEDTAVYYCARDYGVYDYWGQGTLVTVSSASTKGPSVFPLAPSSKSTSGGTAALGCLVKDYFPEPVTVSWNSGALTSGVHTFPAVLQSSGLSLSSVVTVPSSSLGTQTYICNVNHKPSNTKVDKKVEPKSCDKTHTCPPCPAPELLGGPSVLFPPKPKDTLMISRTPEVTCVVVDVSHEDPEVKFNWYVDGVEVHNAKTKPREEQYNSTYRVVSVLTVLHQDWLNGKEYKCKVSNKALPAPIEKTISKAKGQPREPQVYTLPPSREEMTKNQVSLTCLVKGFYPSDIAVEWESNGQPENNYKTTPPVLDSDGSFLYSKLTVDKSRWQQGNVFSCSVMHEALHNHYTQKSLSLSPGK
light: MDIQMTQSPSSLSASVGDRVTITCRASQDVNTAVAWYQQKPGAPKLLIYSASFLYSGVPSRFSGSRSGTDFTLTISSLQPEDFATYYCQQHYTTPPTFGQGTKVEIKRTVAAPSVFIFPPSDEQLKSGTASVVCLLNNFYPREAKVQWKVDNALQSGNSQESVTEQDSKDSTYSLSSTLTLSKADYEKHKVYACEVTHQGLSSPVTKSFNRGEC
modifications: pAMF at K42, linked to LP3; pAMF at Y180, F241 and F404 (EU), each linked to LP3
- cell killing EC50, NTERA-2 cells [4]: 0.045 nM
- cell killing EC50, NTERA-2 cells [5]: 0.042 nM
- cell killing Span, NTERA-2 cells [5]: 51%
- Cell Killing on Ntera2 Cells, EC50, With 1 uM 2188-D04 [6]: < 10 nM
- Cell Killing on Ntera2 Cells, EC50, Without 2188-D04 [6]: 0.038 nM

B4: Conjugate 47 (D04-Y180/F241/F404/K42-LP4) (antibody, human IgG1, kappa)
heavy: B3 heavy
light: B3 light
modifications: pAMF at K42, linked to LP4; pAMF at Y180, F241 and F404 (EU), each linked to LP4
- cell killing EC50, NTERA-2 cells [4]: 0.007 nM
- cell killing EC50, NTERA-2 cells [5]: 0.005 nM
- cell killing Span, NTERA-2 cells [5]: 96%
- Cell Killing on Ntera2 Cells, EC50, With 1 uM 2188-D04 [6]: < 10 nM
- Cell Killing on Ntera2 Cells, EC50, Without 2188-D04 [6]: 0.008 nM

- Kd [7]: 24.5 nM
- koff [7]: 0.01 s⁻¹
- kon [7]: 559000 M⁻¹ s⁻¹
B5: SRP1944-A07 (with trastuzumab LC) (antibody, IgG1, V domains shown)
VH: EVQLVESGGGLVQPGGSLRLSCAASGFNITGYYIHWVRQAPGKGLEWVGYISPNSGSTYYADSVKGRFTISADTSKNTAYLQMNSLRAEDTAVYYCARDSRRYVRPFDYWGQGTLVTVSS
VL: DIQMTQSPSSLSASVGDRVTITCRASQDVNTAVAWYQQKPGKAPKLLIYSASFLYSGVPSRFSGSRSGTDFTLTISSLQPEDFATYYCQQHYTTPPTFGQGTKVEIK
notes: Parent of SRP2194; His/FLAG-tagged IgG1, cell-free; also called Antibody 126
- Mino Nb-PBD, drug-conjugated 2° antibody Cell Killing EC50 (human ROR1 (hROR1) [8]): 0.01 nM

- Kd [7]: 1.54 nM
- koff [7]: 0.000317 s⁻¹
- kon [7]: 206000 M⁻¹ s⁻¹
- Bmax (MFI) (human ROR1 (hROR1) [9]): 8810 MFI
- Kd (human ROR1 (hROR1) [9]): 0.31 nM
B6: SRP2194-A05 (antibody, IgG1, V domains shown)
VH: B5 VH with T30K, G31E, Y33H, S100H
VL: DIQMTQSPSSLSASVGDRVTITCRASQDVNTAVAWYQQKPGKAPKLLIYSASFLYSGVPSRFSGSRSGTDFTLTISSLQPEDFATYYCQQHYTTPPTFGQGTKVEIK
notes: His/FLAG-tagged IgG1, cell-free
- Mino Nb-PBD, drug-conjugated 2° antibody Cell Killing EC50 (human ROR1 (hROR1) [8]): 0.002 nM
